Reference: the supplement of paper PMC9170038

System: MS2 coat protein
Experiment: apparent KD of MS2 coat protein; designed switch direction (-1 OFF switch, 1 ON switch): -1; higher = weaker reporter binding
How it was run: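 For each design, the apparent KD is the median over clusters of curves fitted to normalised cluster fluorescence. Clusters held RNA switches with common flanks, transcribed on Illumina chips by stalled E. coli RNA polymerase. These were titrated with SNAP-549-labelled MS2 coat protein, doubling from 0.7 or 1.5 nM to 3 µM, without input, with 200 uM small-molecule ligand, or with an oligonucleotide input.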

[1] = input ligand: microRNA oligo, concentration not stated
[2] = Eterna round: R95, input ligand: FMN 200 uM
[3] = Eterna round: R95, input ligand: microRNA oligo, concentration not stated
[4] = Eterna round: R95, input ligand: none

Sequence	apparent KD of MS2 coat protein (input ligand: FMN 200 uM) [nM]	apparent KD of MS2 coat protein [1] [nM]	apparent KD of MS2 coat protein (input ligand: none) [nM]	apparent KD of MS2 coat protein [2] [nM]	apparent KD of MS2 coat protein [3] [nM]	apparent KD of MS2 coat protein [4] [nM]
ACAUGAGGAUCACCCAUGUCCGGCUGGUCUGUUUCGGUUGUCGAGGAUAUAGUUCGGUGUUCGCGCUAGAAGGUGGGAGCUGGC [Aenatbe mod 57] (Eterna round: R96, puzzle: Exclusion NG 3)	143	108	175	–	–	–
ACAUGAGGAUCACCCAUGUCCGGCUGGUCUGUUUCGGUUGUCGAGGAUAUAGUUCGGUGUUCGCGCUAGAAGGUGGGAGCUGGG [Aenatbe mod 56] (Eterna round: R96, puzzle: Exclusion NG 3)	161	116	147	–	–	–
ACAUGAGGAUCACCCAUGUCCGGUUGGUCUGUUCCGGCUGUCGAGGAUAUAGUCCGGUGUUCGCGCUAGAAGGUGAGGGCUGGA [Aenatbe mod 46] (Eterna round: R96, puzzle: Exclusion NG 3)	775	259	500	–	–	–
ACAUGAGGAUCACCCAUGUCCGUCUGGUCUGUCUCGGCUGUCGAGGAUAUAGCUCGGUAUCCGCGCUAGAAGGCGGGAGUCGGU [Aenatbe mod 93] (Eterna round: R96, puzzle: Exclusion NG 3)	73.6	66.7	88.5	–	–	–
ACAUGAGGAUCACCCAUGUCUGGCUGGUCUGCUCCGGUUGUUGAGGAUAUAGUUCGGUGUUCGCGCUAGAAGGUGAGGGCUGGC [Aenatbe mod 38] (Eterna round: R96, puzzle: Exclusion NG 3)	34.4	32.1	39	–	–	–
ACAUGAGGAUCACCCAUGUGAAAACAAUGGCUGACUUUGAGACAGGAUAUAGGUGCAUAUCAAACCUAGAAGGGUCAUUACUGG [Deportation 93 - Jieux - Exclusion NG 3] (Eterna round: R96, puzzle: Exclusion NG 3)	43.5	31.6	38.2	–	–	–
ACAUGAGGAUCACCCAUGUGAAACCAAUGGCUGACUUUGAGCUAGGAUAUUCGUGCAUAUCAAACGAAGAAGGAGCAUUACUGG [Deportation 97 - Jieux - Exclusion NG 3] (Eterna round: R96, puzzle: Exclusion NG 3)	36.9	31.5	34.8	–	–	–
ACAUGAGGAUCACCCAUGUGACCACAAUGGCUGAUGUAACAACAGGAUAUUCGUGAAUAUCUAACGAAGAAGGGUUAUGACUGG [Deportation 63 - Jieux - Exclusion NG 3] (Eterna round: R96, puzzle: Exclusion NG 3)	–	51.4	–	–	–	–
ACAUGAGGAUCACCCAUGUGCACGUAAUGGCUCAUGUAGAGUCAGGAUAUGCGUGGCGAACUCGCGCAGAAGGGACAAGACUGG [Deportation 20 - Jieux - Exclusion NG 3] (Eterna round: R96, puzzle: Exclusion NG 3)	23.5	25.6	34.6	–	–	–
ACAUGAGGAUCACCCAUGUUUGGCUGGUUUUCUCCGGCUGUCGAGGAUAUAGUCCGGUAUCCGCGCUAGAAGGUGAGGGCUGGC [Aenatbe mod 5] (Eterna round: R96, puzzle: Exclusion NG 3)	14.5	13.1	20.4	–	–	–
ACAUGUCAUUGAGGAUAUCGCACACAUGAGGAUCACCCAUGUAAACGGAUGCUCUUACGUGGGUUCGAGAAGGCGAUGUACAUU [Ex NG2 #95] (Eterna round: R96, puzzle: Exclusion NG 2)	458	112	142	–	–	–
ACAUGUCAUUGAGGAUAUCGCACACAUGAGGAUCACCCAUGUAAACGGAUGCUCUUUCGUGGUUUCGAGAAGGCGAUGUACAUU [Ex NG2 #97] (Eterna round: R96, puzzle: Exclusion NG 2)	438	335	182	–	–	–
ACAUGUUGCGCAGGAUAUGGGACACAUGAGGAUCACCCAUGUGGCUACAUGUCAUACCAAGCGUCUCAGAAGGGUGUUAACAUG [Ex NG2 #36] (Eterna round: R96, puzzle: Exclusion NG 2)	20.1	14	17.7	–	–	–
ACCACCUUAGUCAGGAUAUAGCUUCUAGCAAGAUACUAGAAGGGACAUGAGGAUCACCCAUGUAAAGGUGCUAA [Ramais] (puzzle: Brourd's mod of Exclusion 4)	–	–	–	25.3	29	27.2
ACCAGCAUACGGAGAUCCAACAUGAGGAUCACCCAUGUCUGGAAAGCUUUUUGCUUGUCUUAUCCUCCUCUGUGUGC [Design #2] (Eterna round: R97, puzzle: Sensor, turn-off variant 1)	17.5	–	16.6	–	–	–
ACCAGUAUAUGGAGAUUUUACAUGAGGAUCACCCAUGUUGGGACAGCUUUUUGCUUGUCUUAUCCUACUUUGUGUGU [Design #3] (Eterna round: R97, puzzle: Sensor, turn-off variant 1)	32.2	–	36	–	–	–

Sequence	apparent KD of MS2 coat protein (input ligand: FMN 200 uM) [nM]	apparent KD of MS2 coat protein [1] [nM]	apparent KD of MS2 coat protein (input ligand: none) [nM]	apparent KD of MS2 coat protein [2] [nM]	apparent KD of MS2 coat protein [3] [nM]	apparent KD of MS2 coat protein [4] [nM]
ACCAGUGGAGGAUAUACAUGAGGAUCACCCAUGUGUUGAAUAGGUGGAGAACCACAAAGUAGAAGGCCACUGGA [jl-ex3-4.79 jandersonlee automod] (Eterna round: R97, puzzle: Exclusion 3)	1000	–	76.6	–	–	–
ACCAUUACCACACCCUCUAUACAUGAGGAUCACCCAUGUUCUGAGGAUAUCAUCGCUCGCCGCGUUGAGAAGGCAGAGCAUUAA [Tiisri] (Eterna round: R96, puzzle: Exclusion NG 3)	50.8	9.21	15.1	–	–	–
ACCAUUUUACGAUAUGUGCACAUGAGGAUCACCCAUGUUCCGAUAAACAUUUGAAGUACAGCAGGCUGCUCGAUCUG [Eternabot (L2) Solution 45] (Eterna round: R97, puzzle: Sensor, turn-off variant 1)	94.2	–	87.4	–	–	–
ACCUCACAUGAGGAUCACCCAUGUAAGGAUAUCUUCGCUUUGACGUUGCUCUAUGCGAAGAGAAGGUACACGGA [Xeteed] (Eterna round: R97, puzzle: Exclusion 1)	84.8	–	20.6	–	–	–
ACCUCACAUGAGGAUCACCCAUGUCAGGAUAUCUAAUAUAGUAGCGUUCCCGACGCUAAGAGAAGGGACAUUAA [EX1 #32] (Eterna round: R97, puzzle: Exclusion 1)	23	–	13.9	–	–	–
ACCUCACAUGAGGAUCACCCAUGUUAGGAUAUCUCGGCGCCCUGCAGGCAGUGGCACCAGAGAAGGAACGUGCA [Xeindiisti] (puzzle: Exclusion 1)	–	–	–	–	20.4	–
ACGCCUCCUGUUAGGAUAUGCAUCGGGCUUCCGCAGCAGAAGGAACAUGAGGAUCACCCAUGUCAAAUAAAAUC [Raleed] (puzzle: Brourd's mod of Exclusion 4)	–	–	–	–	17	–
ACGCGAUAUGGCGUAACGCGACAUGAGGAUCACCCAUGUAACGAGGAUAUGAUCUCGAGAGAGGGUCAGAAGGCGUUACAAUAU [Eternabot solution 23] (Eterna round: R96, puzzle: Exclusion NG 3)	130	70.7	74.3	–	–	–
ACGCGUGGCUAGGAUAUGCAGAAAUCUAGCCAGGCAGAAGGAGCCACAUGAGGAUCACCCAUGUGGUGAUCCUC [eternacac ex6r4 sub1] (Eterna round: R97, puzzle: Exclusion 6)	10.8	–	9.98	–	–	–
ACGGUGGUCCGAGAACAUGAGGAUCACCCAUGUGACAAAACCAAGGAUAUAGACGGACCGCCCGACUAGAAGGUGGAAAGAAAA [Aronlema] (Eterna round: R96, puzzle: Exclusion NG 3)	90.2	41.1	77.9	–	–	–
ACGUAUCAUGUCAGGAUAUAGCUAGCUACGGCUAGCUAGAAGGGACAUGAGGAUCACCCAUGUCAAAGAUACGU (puzzle: Brourd's mod of Exclusion 4)	–	–	–	–	13.2	–
ACGUGAUACCUGUCGGUGGACAUGAGGAUCACCCAUGUAAGCUUUUUGCUCGUCUUAUAACCCGGUGACAGACCUUC [Racequbebe] (puzzle: Sensor v3, turn-off variant 1)	–	–	–	97.7	544	142
ACGUGAUAUCUGUCGGUGGACAUGAGGAUCACCCAUGUAAGCUUUUUGCUCGUCUUACAACCCGGUGACAGACCUUC [Essodiis] (puzzle: Sensor v3, turn-off variant 1)	–	–	–	138	275	166
ACGUGAUAUCUGUCGGUGGACAUGAGGAUCACCCAUGUAAGCUUUUUGCUUGUCUUAUAACCCGGUGACAGACCUUC [Inxeer] (Eterna round: R96, puzzle: Sensor v3, turn-off variant 1)	35.5	349	35.1	–	–	–
ACGUGAUAUCUGUCGGUGGACAUGAGGAUCACCCAUGUAAGCUUUUUGCUUGUCUUAUAACCCGGUGACAGACCUUC [Inxeer] (puzzle: Sensor v3, turn-off variant 1)	–	–	–	23.1	540	26.5
ACGUGAUAUCUGUCGGUGGACAUGAGGAUCACCCAUGUGAGCUUUUUGCUCGUCUUACAACCCGGUGACAGACCUUC [Bebitier] (puzzle: Sensor v3, turn-off variant 1)	–	–	–	23.6	262	21.4
